T1: DNA polymerase V (UmuD′2C) (E. coli, UniProt P04152 1-422; P0AG11 25-139)
T1 chain 1: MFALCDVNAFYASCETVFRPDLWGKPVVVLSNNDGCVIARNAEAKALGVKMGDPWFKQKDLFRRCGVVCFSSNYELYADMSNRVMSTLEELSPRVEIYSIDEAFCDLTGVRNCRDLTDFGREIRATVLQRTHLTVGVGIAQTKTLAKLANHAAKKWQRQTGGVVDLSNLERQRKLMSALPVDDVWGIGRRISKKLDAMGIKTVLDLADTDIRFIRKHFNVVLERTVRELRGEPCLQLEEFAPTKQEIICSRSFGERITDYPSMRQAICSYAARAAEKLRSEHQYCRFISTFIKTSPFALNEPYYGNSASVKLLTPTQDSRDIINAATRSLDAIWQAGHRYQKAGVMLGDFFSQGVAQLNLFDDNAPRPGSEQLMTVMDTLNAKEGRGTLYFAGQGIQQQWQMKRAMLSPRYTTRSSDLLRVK
T1 chain 2: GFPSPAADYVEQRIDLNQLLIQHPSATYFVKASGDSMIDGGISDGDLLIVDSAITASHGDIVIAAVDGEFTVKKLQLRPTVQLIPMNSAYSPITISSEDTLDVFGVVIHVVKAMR


Target: T1, DNA polymerase V (UmuD′2C)
Test: FP; apparent Kd

Binder	Kd
RecA D112R, fluorescein-labelled (natural protein, fluorescein (Fluorescein-EX Protein Labeling Kit); labelled residues not stated) AIDENKQKALAAALGQIEKQFGKGSIMRLGEDRSMDVETISTGSLSLDIALGAGGLPMGRIVEIYGPESSGKTTLTLQVIAAAQREGKTCAFIDAEHALDPIYARKLGVDIRNLLCSQPDTGEQALEICDALARSGAVDVIVVDSVAALTPKAEIEGEIGDSHMGLAARMMSQAMRKLAGNLKQSNTLLIFINQIRMKIGVMFGNPETTTGGNALKFYASVRLDIRRIGAVKEGENVVGSETRVKVVKNKIAAPFKQAEFQILYGEGINFYGELVDLGVKEKLIEKAGAWYSYKGEKIGQGKANATAWLKDNPETAKEIEKKVRELLLSNPNSTPDFSVDDSEGVAETNEDF	297 nM
wild-type E. coli RecA protein, fluorescein-labelled (natural protein, fluorescein (Fluorescein-EX Protein Labeling Kit); labelled residues not stated) MAIDENKQKALAAALGQIEKQFGKGSIMRLGEDRSMDVETISTGSLSLDIALGAGGLPMGRIVEIYGPESSGKTTLTLQVIAAAQREGKTCAFIDAEHALDPIYARKLGVDIDNLLCSQPDTGEQALEICDALARSGAVDVIVVDSVAALTPKAEIEGEIGDSHMGLAARMMSQAMRKLAGNLKQSNTLLIFINQIRMKIGVMFGNPETTTGGNALKFYASVRLDIRRIGAVKEGENVVGSETRVKVVKNKIAAPFKQAEFQILYGEGINFYGELVDLGVKEKLIEKAGAWYSYKGEKIGQGKANATAWLKDNPETAKEIEKKVRELLLSNPNSTPDFSVDDSEGVAETNEDF	239 nM

Source: article PMC4374754 (2015)
